One may read the Kd as a measure of binding affinity in units of concentration.

Positions count from the first letter of the chain named.

Experimental findings from PMC5413351, “Structural basis of protein translocation by the Vps4-Vta1 AAA ATPase” (eLife, 2017) are described below.

Data set [1] is described as follows: ATPase assay (malachite green end-point). Type of data set: biochemical, S. cerevisiae. The conditions noted are these: 1 mM ATP, 37°C, 5 min, pH 7.4, mean of all runs. As for the experimental part: The rate of ATP hydrolysis was determined using an end-point method modified from Merrill and Hanson ([Merrill and Hanson, 2010]). Vps4 at the indicated subunit concentration was incubated with 1 mM ATP at 37°C in 20 mM HEPES/NaOH pH 7.4, 100 mM NaCl, 10 mM MgCl2, 1 mM DTT in a total volume of 10 µl. The hydrolysis reaction was stopped after 5 min by the addition of 100 µl of malachite green color reagent (14 mM ammonium molybdate, 1.3 M HCl, 1.5 mM malachite green) and 50 µl of 21% (w/v) citric acid. Absorbance at 650 nm was read using a Biotek Neo Synergy microplate reader and the amount of inorganic phosphate released by the reaction was determined using a sodium phosphate standard curve. Means and standard deviations reported in Figure 1D are from at least three independent experiments using different protein preparations with three or more technical replicates each.

For another data set, the target named is T1, Vps4^101-437 (Saccharomyces cerevisiae, UniProt P52917, L151D).
T1 construct: 6xHis (TEV-cleavable) (N, cleaved yes); made in house; host or cells: E. coli BL21(DE3)RIL
T1 sequence (P52917 101-437 L151D): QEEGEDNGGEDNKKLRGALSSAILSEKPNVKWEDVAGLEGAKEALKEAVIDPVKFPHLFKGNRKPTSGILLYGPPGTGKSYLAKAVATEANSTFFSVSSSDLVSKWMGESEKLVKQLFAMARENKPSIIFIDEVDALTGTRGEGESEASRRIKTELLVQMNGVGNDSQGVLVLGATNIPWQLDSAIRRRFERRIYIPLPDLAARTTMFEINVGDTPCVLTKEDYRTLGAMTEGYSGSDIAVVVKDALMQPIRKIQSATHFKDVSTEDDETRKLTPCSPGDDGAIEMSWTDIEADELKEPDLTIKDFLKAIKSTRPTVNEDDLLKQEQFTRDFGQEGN
The data set is classed as binding, S. cerevisiae. The conditions noted are these: global fit of replicate titrations over [Vps4 monomer], uM, m1 = 1; L151D mutant; Std. Error 0.218; 95% CI (profile likelihood) 4.01 to 4.887; read-out: Kd (fit to normalized anisotropy data, best-fit value). As to the method: Fluorescence polarization assay for ESCRT-III peptide binding
When equilibrium was reached, parallel and perpendicular fluorescence intensities were measured on a Biotek Synergy Neo HTS microplate reader using an excitation wavelength of 485 nm and an emission wavelength of 528 nm.

B1: Vps4 full-length: yeast AAA ATPase Vps4, full-length (pET151-Vps4) (protein)
chain 1: MSTGDFLTKGIELVQKAIDLDTATQYEEAYTAYYNGLDYLMLALKYEKNPKSKDLIRAKFTEYLNRAEQLKKHLESEEANAAKKSPSAGSGSNGGNKKISQEEGEDNGGEDNKKLRGALSSAILSEKPNVKWEDVAGLEGAKEALKEAVILPVKFPHLFKGNRKPTSGILLYGPPGTGKSYLAKAVATEANSTFFSVSSSDLVSKWMGESEKLVKQLFAMARENKPSIIFIDEVDALTGTRGEGESEASRRIKTELLVQMNGVGNDSQGVLVLGATNIPWQLDSAIRRRFERRIYIPLPDLAARTTMFEINVGDTPCVLTKEDYRTLGAMTEGYSGSDIAVVVKDALMQPIRKIQSATHFKDVSTEDDETRKLTPCSPGDDGAIEMSWTDIEADELKEPDLTIKDFLKAIKSTRPTVNEDDLLKQEQFTRDFGQEGN
chain 2: MASNAARVVATAKDFDKVGLGIIGYYLQLYAVELILSEEDRSQEMTALATELLDTIEAFKKEIGGESEAEDSDKSLHVMNTLIHDQEKAKIYMLNFTMSLYNEKLKQLKDGPWDVMLKRSLWCCIDLFSCILHLWKENISETSTNSLQKRIKYCKIYLSKLAKGEIGSSDEKTLDYADFADDSEEIKDEDVDHQTSDLENNNNDKVEGLAPKDQTTSYEPVDEVPEFIDDADSVNEEEQTVDKNEDAITKDEQQVVKKEVDLTRPSAPSEPAAAEHKSYTKDELTKIMDRASKIEQIQKLAKYAISALNYEDLPTAKDELTKALDLLNSI
modifications: left off: 6xHis, N-terminal, cleaved | 6xHis, N-terminal, cleaved
As to B1, the “ATPase activity, average” value is listed as 19.8582 ATP/min/Vps4 hexamer in data set [1] (0.05 μM Vps4 subunits) and 701.731 ATP/min/Vps4 hexamer in data set [1] (1 μM Vps4 subunits).

B2: Vps4^101-437: yeast Vps4 construct (residues 101–437) spanning the AAA ATPase cassette (protein, UniProt P52917 101-437, looked up, fragment)
chain: QEEGEDNGGEDNKKLRGALSSAILSEKPNVKWEDVAGLEGAKEALKEAVILPVKFPHLFKGNRKPTSGILLYGPPGTGKSYLAKAVATEANSTFFSVSSSDLVSKWMGESEKLVKQLFAMARENKPSIIFIDEVDALTGTRGEGESEASRRIKTELLVQMNGVGNDSQGVLVLGATNIPWQLDSAIRRRFERRIYIPLPDLAARTTMFEINVGDTPCVLTKEDYRTLGAMTEGYSGSDIAVVVKDALMQPIRKIQSATHFKDVSTEDDETRKLTPCSPGDDGAIEMSWTDIEADELKEPDLTIKDFLKAIKSTRPTVNEDDLLKQEQFTRDFGQEGN
Turning to B2, the “ATPase activity, average” value in data set [1] (0.05 μM Vps4 subunits) was -26.1936 ATP/min/Vps4 hexamer; in data set [1] (1 μM Vps4 subunits), 418.838 ATP/min/Vps4 hexamer.

B3: Vps4(101-437) L151D (protein)
chain: B2 chain with L51D
modifications: left off: 6xHis, N-terminal, cleaved
With B3, the Kd with Vps4^101-437 came to 4.43 µM.

B4: Vps4^81-437: Vps4 construct residues 81-437 (pET151-Vps4(81-437)) (protein, UniProt P52917 81-437, looked up, fragment)
chain: AAKKSPSAGSGSNGGNKKISQEEGEDNGGEDNKKLRGALSSAILSEKPNVKWEDVAGLEGAKEALKEAVILPVKFPHLFKGNRKPTSGILLYGPPGTGKSYLAKAVATEANSTFFSVSSSDLVSKWMGESEKLVKQLFAMARENKPSIIFIDEVDALTGTRGEGESEASRRIKTELLVQMNGVGNDSQGVLVLGATNIPWQLDSAIRRRFERRIYIPLPDLAARTTMFEINVGDTPCVLTKEDYRTLGAMTEGYSGSDIAVVVKDALMQPIRKIQSATHFKDVSTEDDETRKLTPCSPGDDGAIEMSWTDIEADELKEPDLTIKDFLKAIKSTRPTVNEDDLLKQEQFTRDFGQEGN
B4: the “ATPase activity, average” value in data set [1] (0.05 μM Vps4 subunits) is reported as -6.194 ATP/min/Vps4 hexamer; in data set [1] (1 μM Vps4 subunits), 456.338 ATP/min/Vps4 hexamer.
